Laboratory results taken from patent publication JP2021054739A (dated 2021).

Target: T1, Recombinant Human CEACAM-5/CD66e Protein, CF (R&D SYSTEMS) (human, UniProt P06731 35-685)
T1 construct: Bought recombinant protein, immobilised on a CM5 chip by amine coupling; also called 抗原CEACAM5
T1 sequence (looked up): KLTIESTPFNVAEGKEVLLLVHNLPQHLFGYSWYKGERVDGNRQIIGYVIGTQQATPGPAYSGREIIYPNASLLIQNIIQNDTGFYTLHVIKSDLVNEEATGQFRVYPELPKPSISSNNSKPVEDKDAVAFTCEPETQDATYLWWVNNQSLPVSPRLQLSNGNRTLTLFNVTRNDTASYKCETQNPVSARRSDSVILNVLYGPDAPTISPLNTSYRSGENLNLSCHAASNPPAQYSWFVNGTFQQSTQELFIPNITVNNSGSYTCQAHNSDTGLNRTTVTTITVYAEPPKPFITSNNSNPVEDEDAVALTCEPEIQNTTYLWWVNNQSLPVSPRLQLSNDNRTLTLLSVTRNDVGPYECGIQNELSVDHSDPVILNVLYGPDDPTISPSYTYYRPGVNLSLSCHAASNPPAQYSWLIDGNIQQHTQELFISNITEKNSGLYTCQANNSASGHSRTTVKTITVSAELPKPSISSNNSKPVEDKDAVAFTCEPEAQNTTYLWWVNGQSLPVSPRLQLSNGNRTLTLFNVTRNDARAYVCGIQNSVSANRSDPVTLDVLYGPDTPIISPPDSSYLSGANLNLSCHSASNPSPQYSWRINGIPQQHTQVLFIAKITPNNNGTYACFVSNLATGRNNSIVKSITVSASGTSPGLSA
Assay: SPR, Biacore T200; CEACAM5 immobilised on CM5 (279 RU), CEA-V2122 as analyte, single-cycle kinetics, bivalent analyte fit; KD = kd1/ka1

B1: CEA-V2122 (scFv)
chain: QVKLEQSGAEVVKPGASVKLSCKASGFNIKDSYMHWLRQGPGQRLEWIGWIDPENGDTEYAPKFQGKATFTTDTSANTAYLGLSSLRPEDTAVYYCNEGTPTGPYYFDYWGQGTLVTVSSGGGGSGGGGSGGGGSENVLTQSPSSMSVSVGDRVNIACSASSSVPYMHWLQQKPGKSPKLLIYLTSNLASGVPSRFSGSGSGTDYSLTISSVQPEDAATYYCQQRSSYPLTFGGGTKLEIKGGGGSGGGGAEAGITGTWSDQLGDTFIVTAGADGALTGTYENAVGGAESRYVLTGRYDSAPATDGSGTALGWTVAWKNNSKNAHSATTWSGQYVGGADAKINTQWLLTSGTTNANAWKSTLVGHDTFTKVKPSAASHHHHHH
notes: Fusion of an scFv with a streptavidin mutant; also called scFv-V2122; CEA-Cupid
For B1, which Kd is on record?
Its Kd is 1.08 pM.
